From patent US20240368299A1 (JIANGSU KANION PHARMACEUTICAL, published 2024)

B1: anti-human CD73 monoclonal antibody 7-C10-Ba-C2 (antibody, V domains shown)
VH: EVQLQQSGPELVKPGASMKISCKASGYSFTGYTMNWVKQSHGKNLEWIGFITPYNGDTIYNQKFKGKATVTVDKSSSTAYMDLLSLTSEDSAVYYCAREGYDGGYFDYWGQGTTLTVSS
VL: DIQMTQSPASLSASVGETVTITCRASENIYSYLAWYQQKQGKSPQLLVYNTQTLAEGVPSRFSGSGSGTQFSLKINSLQPEDFGSYYCQHHYGTPMYPFGGGTKLEIK
notes: Mouse (BABL/c) hybridoma antibody purified from ascitic fluid; also called antibody of the present invention

Tests used:
[1] = biological target: recombinant human CD73 protein with C-terminal 6xHis tag (human) (UniProt P21589); assay: cell-based or functional assay
[2] = biological target: T1, CD73 on A549 cells (UniProt P21589 27-549, limits assumed); assay: cell-based or functional assay
T1 sequence (looked up): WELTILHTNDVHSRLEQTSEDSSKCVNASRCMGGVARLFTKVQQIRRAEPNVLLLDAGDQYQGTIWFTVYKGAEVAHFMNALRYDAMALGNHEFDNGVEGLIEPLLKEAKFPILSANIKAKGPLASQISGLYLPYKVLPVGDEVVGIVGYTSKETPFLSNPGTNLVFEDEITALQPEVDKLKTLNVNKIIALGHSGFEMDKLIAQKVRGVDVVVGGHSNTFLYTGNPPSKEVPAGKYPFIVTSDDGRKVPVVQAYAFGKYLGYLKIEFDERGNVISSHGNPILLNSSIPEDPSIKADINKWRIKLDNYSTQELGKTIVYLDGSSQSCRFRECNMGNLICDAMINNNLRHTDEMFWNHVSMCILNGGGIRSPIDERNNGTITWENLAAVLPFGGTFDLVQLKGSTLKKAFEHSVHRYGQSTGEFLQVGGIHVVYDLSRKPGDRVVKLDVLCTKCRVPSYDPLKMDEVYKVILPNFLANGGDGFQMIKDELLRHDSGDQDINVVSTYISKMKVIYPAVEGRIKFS

[3] = biological target: recombinant human CD73 protein with C-terminal 6xHis tag (human) (UniProt P21589); assay: SPR, Biacore T200, antibody captured on CM5 chip, human CD73 injected, 25 C, 1:1 fit
[4] = biological target: T2, recombinant human CD73 protein with C-terminal 6xHis tag (human, UniProt P21589 27-547, limits assumed); assay: cell-based or functional assay
T2 sequence: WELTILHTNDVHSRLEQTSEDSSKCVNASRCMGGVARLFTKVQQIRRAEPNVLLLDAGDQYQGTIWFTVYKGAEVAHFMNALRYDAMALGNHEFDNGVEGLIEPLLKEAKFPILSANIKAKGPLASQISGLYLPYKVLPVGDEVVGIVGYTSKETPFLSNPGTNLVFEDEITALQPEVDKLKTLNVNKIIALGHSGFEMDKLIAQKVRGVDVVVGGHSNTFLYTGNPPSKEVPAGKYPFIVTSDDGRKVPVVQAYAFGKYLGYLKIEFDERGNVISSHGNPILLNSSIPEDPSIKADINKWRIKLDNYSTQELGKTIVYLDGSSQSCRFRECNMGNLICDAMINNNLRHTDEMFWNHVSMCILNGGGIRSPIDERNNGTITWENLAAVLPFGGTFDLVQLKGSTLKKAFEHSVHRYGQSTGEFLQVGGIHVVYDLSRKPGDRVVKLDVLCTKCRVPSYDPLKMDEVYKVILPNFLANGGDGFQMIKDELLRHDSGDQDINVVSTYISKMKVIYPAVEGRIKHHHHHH

[5] = biological target: T2, recombinant human CD73 protein with …; assay: SPR, Biacore T200, antibody captured by anti-mouse Fc IgG on CM5 chip, human CD73 injected, 25 C, 1:1 fit
Description: Mouse Antibody Capture Kit, which is a commercialized reagent kit, was purchased from GE. Anti-mouse Fc IgG was fixated on a CM5 sensor chip by amine coupling in order to capture the antibody under test with the coupled anti-mouse Fc IgG. A series of human CD73 proteins having a predetermined concentration gradient were then injected, before samples were taken and tested with the pH 1.7 glycine-HCl regeneration testing chip that came with the reagent kit.
The binding constant (Ka), the dissociation rate constant (Kd), and the equilibrium constant (KD) were calculated with the Biacore T200 evaluation software by combining the model fitting data at a 1:1 ratio.

Row | Molecule | EC50 (µg/mL), Biochemical level, inhibition of CD73 enzyme activity [1] [µg/mL] | EC50 (µg/mL), Cell level (A549), inhibition of CD73 enzyme activity [2] [µg/mL] | Kd [3] [nM] | koff [3] [s⁻¹] | kon [3] [M⁻¹ s⁻¹] | EC50 (µg/mL), Biochemical level, inhibition of CD73 enzyme activity [4] [µg/mL] | Kd [5] [nM] | koff [5] [s⁻¹] | kon [5] [M⁻¹ s⁻¹]
1 | MEDI-9447, anti-CD73 monoclonal antibody of MedImmune LLC | 0.0896 | 0.032 | 0.141 | 3.91e-05 | 278000 | – | – | – | –
2 | B1 | – | 0.0854 | – | – | – | 0.106 | 0.416 | 3.21e-05 | 77200
